± gives the uncertainty stated by the source.
Assay: amyloid nucleation score (Sup35N fusion, yeast selection) (log enrichment); library NNK3; higher = more nucleation; inactive = no reads after selection
Method in brief: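 The nucleation score, computed with DiMSum, is the log enrichment of output over input reads, centred on the mode score of non-aggregating sequences. Sequences with under 100 input reads were dropped. Reads were generated by Illumina sequencing of plasmid inserts from psi-negative yeast with Sup35N fused to peptides of 20 random codons, induced with 100 μM copper sulfate for 24 hours and grown 7 days at 30°C on medium lacking adenine and uracil.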

PSVIFRDWFEKMWLDRISVV
amyloid nucleation score: inactive

SRVGGISC
amyloid nucleation score: inactive

RMEKIRTKVNSVTDSSWKSR
amyloid nucleation score: inactive

STIISWWSTVIYFKLI
amyloid nucleation score: inactive

NVYTYIRPRRVYK
amyloid nucleation score: inactive

ASSKCYINKRSNPGRRGLYG
amyloid nucleation score: inactive

PAGWGWSCCFDFLSSISKIY
amyloid nucleation score: inactive

NLCRVMMFSFFTLLV
amyloid nucleation score: 1.44 ± 0.1

QWRIRSWHMYDSSLARGLD
amyloid nucleation score: inactive

VNGFRVHWERPEHCYSVLML
amyloid nucleation score: inactive

WEGMNNKIRAYAYIATLVYT
amyloid nucleation score: inactive

EHWCFINFLELICYQYLFLP
amyloid nucleation score: inactive

MLLCDKFVVCTCIGVQVYSY
amyloid nucleation score: 2.19 ± 0.087

FRNSGTNACIL
amyloid nucleation score: inactive

FVYQYYV
amyloid nucleation score: inactive

MLLCMILPK
amyloid nucleation score: 2.26 ± 0.078

SIFIYDVPIVSRWRIFGKQS
amyloid nucleation score: inactive

FLLVLWSVFLTGT
amyloid nucleation score: inactive

GNSHLSCERSCNIKMCMSGG
amyloid nucleation score: inactive

AIAWYLLLHSRRMIWCINCP
amyloid nucleation score: inactive

RVRSDGANGWGVVMNACWMS
amyloid nucleation score: inactive

HMMTRAASVSLSVQQ
amyloid nucleation score: inactive

YTQFYSMILDRRFCFNSVEL
amyloid nucleation score: inactive

GGKQCTPNDTM
amyloid nucleation score: -0.186 ± 0.55

ICNIYCCCQG
amyloid nucleation score: 2.6 ± 0.069

PYCNRWFSDRGSWDVHRSWV
amyloid nucleation score: inactive

VSTRFFSACTLHFQSSMPYC
amyloid nucleation score: inactive

LSIVRAGVRSGNRGELFRCR
amyloid nucleation score: inactive

VILMEDKSLMSWTRTIIVSM
amyloid nucleation score: inactive

TWSACPTLCLD
amyloid nucleation score: -0.392 ± 0.98

FRVNKRHQYEEHVLLENLVF
amyloid nucleation score: inactive

TIFMWCV
amyloid nucleation score: 1.64 ± 0.097

TRFLFCFNWIWGEPVACEYE
amyloid nucleation score: 2.39 ± 0.07

FILIYDRYRGF
amyloid nucleation score: 1.26 ± 0.095

YVHWLGSALREGDWVLPSAL
amyloid nucleation score: inactive

GYFTRFSVFNNMEPLSCCMC
amyloid nucleation score: 1.38 ± 0.13

YSNSELSGECRLLHKITSD
amyloid nucleation score: inactive

LPIQVSFVMVRWGSMFMFRN
amyloid nucleation score: inactive

LRMHWDTYERSVDTIASVVH
amyloid nucleation score: inactive

GGSFKVDNPKVTRAWISFFS
amyloid nucleation score: 0.802 ± 0.13

GNMLSPI
amyloid nucleation score: inactive

LEYAYSELNSSVSTLSSFE
amyloid nucleation score: inactive

SIRLIIKELDGNDTCIGVSG
amyloid nucleation score: inactive

FCFIHIFNHNSRTNF
amyloid nucleation score: inactive

VAFFSGWQIVVLFMKVL
amyloid nucleation score: inactive

YAVSLMIFGFWGSSMFSHPS
amyloid nucleation score: 0.779 ± 0.11

EFTNMYLPNSQQEVRFLQGL
amyloid nucleation score: inactive

GTSIYSYRYLRYFSMFNM
amyloid nucleation score: inactive

VMVSYG
amyloid nucleation score: inactive

AYLSSTSANF
amyloid nucleation score: inactive

YYFRPVSPRDLSQVDCRTDL
amyloid nucleation score: inactive

FGIKFVIQVDCRHIMHNCVN
amyloid nucleation score: 0.077 ± 0.87

AYVLARFLEDFFMILLWDRW
amyloid nucleation score: inactive

FLTRFRDPT
amyloid nucleation score: -0.589 ± 0.9

QGNCLFVKVG
amyloid nucleation score: inactive

SSFLWTVWGFSNNPCCSSVA
amyloid nucleation score: 2.46 ± 0.051

VGHSNNQFSGFEMCHDNTLL
amyloid nucleation score: inactive

DDCIKPYSLIYTQRHTPRDI
amyloid nucleation score: inactive

LSCMNRTQCHASFSLPL
amyloid nucleation score: inactive

RACCLFQGDWQERLDSISFA
amyloid nucleation score: inactive

TRYCVVNW
amyloid nucleation score: -0.511 ± 0.56

AVRFNHAYISQKPQRMLL
amyloid nucleation score: inactive

CKIRGCKVLLDFVMASVDLW
amyloid nucleation score: inactive

GNWTQ
amyloid nucleation score: inactive

RKKESYSN
amyloid nucleation score: inactive

LMIEGLSDIHVLMAVSPERG
amyloid nucleation score: inactive

SSSLCASWHPYLKWKSYRMF
amyloid nucleation score: inactive

WFLVVVTFGWSIGQGQVGA
amyloid nucleation score: -0.527 ± 1.1

VSGSFVYLLCNS
amyloid nucleation score: inactive

SQLRP
amyloid nucleation score: inactive

SSLMRIHLPLVYQ
amyloid nucleation score: inactive

SMKFC
amyloid nucleation score: inactive

CSNLIIMKNSIERQTAFRYN
amyloid nucleation score: 0.284 ± 0.14

TLLSFAHYHHLWSHLVYRSV
amyloid nucleation score: inactive

AYNFEHFPDETSAQGHVY
amyloid nucleation score: inactive

PKTIRDVYVDGEEHVHFRWR
amyloid nucleation score: inactive

LTFIMLCIS
amyloid nucleation score: 1.24 ± 0.12

GESLQLECLYFTFIKMYVSL
amyloid nucleation score: inactive

LNQVSLLVGNMRWDCDIKSA
amyloid nucleation score: inactive

DVMEVNLVPRAFNLCSSSGL
amyloid nucleation score: inactive

VILNCR
amyloid nucleation score: inactive

SEYYCYICLMVSIGFSANLL
amyloid nucleation score: inactive

TNVSEFQALTWMNTWYSAFS
amyloid nucleation score: inactive

NTEITQLSIVLFCILYQYSV
amyloid nucleation score: 1.46 ± 0.11

IMPRPIKSRLNKNFLWAVVC
amyloid nucleation score: inactive

LLPLFHNVIIGNCLFGCEPP
amyloid nucleation score: 1.62 ± 0.11

MKEDSSYHWRLPHVTSTFVG
amyloid nucleation score: inactive

WRVPCLIVKYDV
amyloid nucleation score: inactive

RVRFLCIMFWDH
amyloid nucleation score: -0.038 ± 0.66

GMYGMSGMV
amyloid nucleation score: inactive

RSLTLW
amyloid nucleation score: inactive

VCFFGLYVLKDN
amyloid nucleation score: inactive

NFYRFNIVRNNVLM
amyloid nucleation score: inactive

LLFAYLMRMRISVHIWVRGT
amyloid nucleation score: inactive

RWSLYLGRSRMKLRATVHSF
amyloid nucleation score: inactive

CYQPRYLSWLKVRDCEDGVY
amyloid nucleation score: inactive

VFVKCWNVGSCIATDEYMSE
amyloid nucleation score: 2.2 ± 0.078

CGNTSIV
amyloid nucleation score: inactive

SDDKGVWLIMAGLCGIWSMY
amyloid nucleation score: 2.33 ± 0.082

KVGIF
amyloid nucleation score: inactive

HKMRRAYLKECFVWDYVSCD
amyloid nucleation score: inactive

NLTFYMYIELVDLRGNAE
amyloid nucleation score: 2.29 ± 0.056

VGQYDTFGLRHHGGYRMRRG
amyloid nucleation score: inactive

ELTEDLVDL
amyloid nucleation score: inactive

ILSKVNSKSDKRSF
amyloid nucleation score: inactive

LIDWTDNRYPYRHHHFCPNA
amyloid nucleation score: inactive

TIIRLIFIWAFFGSGICGRV
amyloid nucleation score: inactive

YQCFVKELYKECISHWARRK
amyloid nucleation score: inactive

SVKTGYVDRPNLRTTFYGCL
amyloid nucleation score: inactive

MWLPPAVQVLLILKAVIVKL
amyloid nucleation score: inactive

RLFFGYCRMDVIFAPYISCV
amyloid nucleation score: inactive

CDGPMSYMGLGTAGKR
amyloid nucleation score: inactive

VFFAVF
amyloid nucleation score: inactive

WLWISMVYCHLKDIRIIVGN
amyloid nucleation score: inactive

HWTLKMTVQHVFMLGASCRY
amyloid nucleation score: inactive

LSVSIGVVGF
amyloid nucleation score: inactive

LFMKRLFLSWFSMVVICGAP
amyloid nucleation score: 0.362 ± 0.71

GFIEW
amyloid nucleation score: inactive

From the supplement of paper PMC12042874
